B1: Wild-type: wild-type tyrosyl-tRNA synthetase of E. coli (SEQ ID NO: 1): position 37 Tyrosine, position 195 Glutamine (protein, listed as Escherichia coli)
chain: MASSNLIKQLQERGLVAQVTDEEALAERLAQGPIALYCGFDPTADSLHLGHLVPLLCLKRFQQAGHKPVALVGGATGLIGDPSFKAAERKLNTEETVQEWVDKIRKQVAPFLDFDCGENSAIAANNYDWFGNMNVLTFLRDIGKHFSVNQMINKEAVKQRLNREDQGISFTEFSYNLLQGYDFACLNKQYGVVLQIGGSDQWGNITSGIDLTRRLHQNQVFGLTVPLITKADGTKFGKTEGGAVWLDPKKTSPYKFYQFWINTADADVYRFLKFFTFMSIEEINALEEEDKNSGKAPRAQYVLAEQVTRLVHGEEGLQAAKRITECLFSGSLSALSEADFEQLAQDGVPMVEMEKGADLMQALVDSELQPSRGQARKTIASNAITINGEKQSDPEYFFKEEDRLFGRFTLLRRGKKNYCLICWK
B2: 37A: E. coli TyrRS variant: position 37 Alanine, position 195 Glutamine (protein, UniProt P0AGJ9 2-424, looked up, variant Y37A)
Tyrosine--tRNA ligase: ASSNLIKQLQERGLVAQVTDEEALAERLAQGPIALACGFDPTADSLHLGHLVPLLCLKRFQQAGHKPVALVGGATGLIGDPSFKAAERKLNTEETVQEWVDKIRKQVAPFLDFDCGENSAIAANNYDWFGNMNVLTFLRDIGKHFSVNQMINKEAVKQRLNREDQGISFTEFSYNLLQGYDFACLNKQYGVVLQIGGSDQWGNITSGIDLTRRLHQNQVFGLTVPLITKADGTKFGKTEGGAVWLDPKKTSPYKFYQFWINTADADVYRFLKFFTFMSIEEINALEEEDKNSGKAPRAQYVLAEQVTRLVHGEEGLQAAKRITECLFSGSLSALSEADFEQLAQDGVPMVEMEKGADLMQALVDSELQPSRGQARKTIASNAITINGEKQSDPEYFFKEEDRLFGRFTLLRRGKKNYCLICWK
B3: AN: E. coli TyrRS double variant: position 37 Alanine, position 195 Asparagine (protein, UniProt P0AGJ9 2-424, looked up, variant Y37A Q195N)
Tyrosine--tRNA ligase: B2 Tyrosine--tRNA ligase with Q194N
B4: IN: E. coli TyrRS double variant: position 37 Isoleucine, position 195 Asparagine (protein, UniProt P0AGJ9 2-424, looked up, variant Y37I Q195N)
Tyrosine--tRNA ligase: B2 Tyrosine--tRNA ligase with A36I, Q194N
B5: LS: E. coli TyrRS double variant: position 37 Leucine, position 195 Serine (protein, UniProt P0AGJ9 2-424, looked up, variant Y37L Q195S)
Tyrosine--tRNA ligase: B2 Tyrosine--tRNA ligase with A36L, Q194S
B6: LN: E. coli TyrRS double variant: position 37 Leucine, position 195 Asparagine (protein, UniProt P0AGJ9 2-424, looked up, variant Y37L Q195N)
Tyrosine--tRNA ligase: B2 Tyrosine--tRNA ligase with A36L, Q194N
B7: LA: E. coli TyrRS double variant: position 37 Leucine, position 195 Alanine (protein, UniProt P0AGJ9 2-424, looked up, variant Y37L Q195A)
Tyrosine--tRNA ligase: B2 Tyrosine--tRNA ligase with A36L, Q194A
B8: AA: E. coli TyrRS double variant: position 37 Alanine, position 195 Alanine (protein, UniProt P0AGJ9 2-424, looked up, variant Y37A Q195A)
Tyrosine--tRNA ligase: B2 Tyrosine--tRNA ligase with Q194A
B9: IC: E. coli TyrRS double variant: position 37 Isoleucine, position 195 Cysteine (protein, UniProt P0AGJ9 2-424, looked up, variant Y37I Q195C)
Tyrosine--tRNA ligase: B2 Tyrosine--tRNA ligase with A36I, Q194C
B10: VN: E. coli TyrRS double variant: position 37 Valine, position 195 Asparagine (protein, UniProt P0AGJ9 2-424, looked up, variant Y37V Q195N)
Tyrosine--tRNA ligase: B2 Tyrosine--tRNA ligase with A36V, Q194N
B11: IA: E. coli TyrRS double variant: position 37 Isoleucine, position 195 Alanine (protein, UniProt P0AGJ9 2-424, looked up, variant Y37I Q195A)
Tyrosine--tRNA ligase: B2 Tyrosine--tRNA ligase with A36I, Q194A
B12: LC: E. coli TyrRS double variant: position 37 Leucine, position 195 Cysteine (protein, UniProt P0AGJ9 2-424, looked up, variant Y37L Q195C)
Tyrosine--tRNA ligase: B2 Tyrosine--tRNA ligase with A36L, Q194C
B13: AS: E. coli TyrRS double variant: position 37 Alanine, position 195 Serine (protein, UniProt P0AGJ9 2-424, looked up, variant Y37A Q195S)
Tyrosine--tRNA ligase: B2 Tyrosine--tRNA ligase with Q194S

Where a chain is given by its changes, count along the chain named.

Here are results for 13 molecules from patent US7393670B2, “Tyrosyl-tRNA synthetase variants” (Japan Science and Technology Agency, priority 2001, dated 2008).

A short description of the first test: Aminoacylation reaction, simplified Lloyd's method, inorganic phosphate detected with Biomol green. The format is biochemical. Set-up: key: ***: the aminoacylation reaction was detected by a microplate reader in the reaction at enzyme concentrations of 50 nM; **: 500 nM; *: 5 μM; the activity is high in the order of *** > ** > * > —. As to conditions: Table 2; 3-iodotyrosine 1 mM; 37° C. for 4 min. The protocol: (§1) In the first method, Lloyd's method (Nucleic Acids Research, 23:2886-2892, 1995) where inorganic phosphate produced by pyrophosphatase-drived hydrolysis of pyrophosphate which was one of the reaction products of the aminoacylation reactions was quantified was simplified, and the inorganic phosphate was detected using Biomol green (Funakoshi) to carry out the measurement of the aminoacylation reaction.
(§2) Amino acid concentrations were 200 μM and 1 mM for tyrosine and 3-iodotyrosine, respectively.
(§3) The method where the aminoacylation reaction is measured by quantifying inorganic phosphate produced by pyrophosphatase-drived hydrolysis of pyrophosphate which is one of reaction products of the aminoacylation has been described by Lloyd et al. (Nucleic Acids Research, 23:2886-2892, 1995). In one method of the invention, this method was simplified and the aminoacylation reaction was measured by the detection of inorganic phosphate using Biomol green (Funakoshi). Each enzyme obtained was incubated with 0.05 ml of the buffer B containing 1 mM ATP (Seikagaku Corporation), 30 μM purified crude tyrosyl-tRNA, and 100 μM tyrosine or 0.5 mM 3-iodotyrosine at 37° C. for one hour. To stop the reaction, 0.1 ml of Bio mol green was added. Absorbance of its supernatant was measured at 630 nm.
With B1, the “Aminoacylation activity, 3-iodotyrosine” value is reported as “—”.

Consider B2, for which the “Aminoacylation activity, 3-iodotyrosine” value was “***”.

Still in this test, the particulars now being: Table 3; 3-iodotyrosine 1 mM; 37° C. for 4 min.
As to B1, the “Aminoacylation activity, 3-iodotyrosine” value is recorded as “—”.

As for B3, the “Aminoacylation activity, 3-iodotyrosine” value is reported as “—”.

As to B4, the “Aminoacylation activity, 3-iodotyrosine” value is “—”.

Regarding B5, the “Aminoacylation activity, 3-iodotyrosine” value was “—”.

Take B6: the “Aminoacylation activity, 3-iodotyrosine” value is “—”.

For the molecule B7, the “Aminoacylation activity, 3-iodotyrosine” value is reported as “—”.

For B8, the “Aminoacylation activity, 3-iodotyrosine” value is given as “—”.

On to B9, for which the “Aminoacylation activity, 3-iodotyrosine” value is given as “—”.

The next test is described as follows: Aminoacylation activity by Lloyd's method (release of pyrophosphates). In kind it is biochemical. As to conditions: 3-iodotyrosine versus tyrosine, from Table 4. The protocol:
In the second method, Lloyd's method (Nucleic Acids Research, 23:2886-2892, 1995) was carried out without alteration.
In the second method, the activity was assayed by Lloyd's method (Nucleic Acids Research, 23:2886-2892, 1995). Each enzyme obtained was incubated with 0.4 ml of the buffer B containing 1 mM ATP (Seikagaku Corporation), 100 μM purified crude tyrosyl-tRNA, 200 μM tyrosine or 3-iodotyrosine at 37° C. for 6 min. The aminoacylation activity was represented as concentrations of released phosphate per min.
For B10, the “relative tyrosine analogue to tyrosine ratio” value is reported as “inferior to VC”.

The same test, now with this note: at 37° C.; 200 μM 3-iodotyrosine.
For the molecule B1, the “Initial velocity of release of pyrophosphates, 3-iodotyrosine” value (shortened to “Initial velocity … 3-iodotyrosine”) is listed as less than 0.05 nM PPi/min/nM enzyme.

As for B10, the “Initial velocity … 3-iodotyrosine” value is listed as 6.9 nM PPi/min/nM enzyme.

As for B2, the “Initial velocity … 3-iodotyrosine” value was determined as 12 nM PPi/min/nM enzyme.

Staying with this test, now noted: at 37° C.; 200 μM tyrosine.
As to B1, the “Initial velocity of release of pyrophosphates, Tyrosine” value stood at 400 nM PPi/min/nM enzyme.

On to B10, for which the “Initial velocity of release of pyrophosphates, Tyrosine” value turned out to be 2.1 nM PPi/min/nM enzyme.

Turning to B2, the “Initial velocity of release of pyrophosphates, Tyrosine” value amounted to 51 nM PPi/min/nM enzyme.

Another test in a line: Aminoacylation reaction, simplified Lloyd's method, inorganic phosphate detected with Biomol green. In kind it is biochemical. Set-up: key: ***: the reaction could be detected strongly at 25 nM; **: strongly at 250 nM; *: weakly at 250 nM; the activity is high in the order of *** > ** > * > —. As to conditions: Table 3; 3-iodotyrosine 1 mM; 37° C. for 4 min. The procedure:
as §1, §2, §3
With B10, the “Aminoacylation activity, 3-iodotyrosine” value is “**”.

For B11, the “Aminoacylation activity, 3-iodotyrosine” value is recorded as “*”.

Regarding B12, the “Aminoacylation activity, 3-iodotyrosine” value is reported as “*”.

Turning to B13, the “Aminoacylation activity, 3-iodotyrosine” value is on record as “*”.

Assay in the next test: as above
Also on record: key: ***: the reaction could be detected strongly at 25 nM; **: strongly at 250 nM; *: weakly at 250 nM; the activity is high in the order of *** > ** > * > —. In kind it is biochemical. As to conditions: Table 3; tyrosine 200 μM; 37° C. for 4 min. The protocol: as §1, §2
(§4) The method where the aminoacylation reaction is measured by quantifying inorganic phosphate produced by pyrophosphatase-drived hydrolysis of pyrophosphate which is one of reaction products of the aminoacylation has been described by Lloyd et al. (Nucleic Acids Research, 23:2886-2892, 1995). In one method of the invention, this method was simplified and the aminoacylation reaction was measured by the detection of inorganic phosphate using Biomol green (Funakoshi). […] To stop the reaction, 0.1 ml of Bio mol green was added. Absorbance of its supernatant was measured at 630 nm.
Take B1: the “Aminoacylation activity, Tyrosine” value is “***”.

For B11, the “Aminoacylation activity, Tyrosine” value is on record as “*”.

With B6, the “Aminoacylation activity, Tyrosine” value is “*”.

With B7, the “Aminoacylation activity, Tyrosine” value is given as “*”.

Take B12: the “Aminoacylation activity, Tyrosine” value is reported as “*”.

For B13, the “Aminoacylation activity, Tyrosine” value is listed as “*”.

Assay in another test: as above
The format is biochemical. Also on record: key: ***: the aminoacylation reaction was detected by a microplate reader in the reaction at enzyme concentrations of 50 nM; **: 500 nM; *: 5 μM; the activity is high in the order of *** > ** > * > —. The following applies: Table 2; tyrosine 200 μM; 37° C. for 4 min. The protocol:
as §1, §2, §4
Consider B1, for which the “Aminoacylation activity, Tyrosine” value is given as “***”.

On to B2, for which the “Aminoacylation activity, Tyrosine” value is given as “***”.

The same test, now with this note: Table 3; tyrosine 200 μM; 37° C. for 4 min.
For the molecule B10, the “Aminoacylation activity, Tyrosine” value is reported as “—”.

Regarding B3, the “Aminoacylation activity, Tyrosine” value was “—”.

Turning to B4, the “Aminoacylation activity, Tyrosine” value was “—”.

In the case of B5, the “Aminoacylation activity, Tyrosine” value is reported as “—”.

Take B8: the “Aminoacylation activity, Tyrosine” value is “—”.

Take B9: the “Aminoacylation activity, Tyrosine” value was “—”.
